From doi:10.1101/732289 (bioRxiv, 2020)

Biological target: human KIX domain of CBP with saturating DUX4 9aaTAD peptide (human, UniProt Q92793;Q9UBX2)
Assay: MST

human KIX domain of CBP with saturating DUX4 9aaTAD peptide, sequence (Q92793 587-673, one chain of several): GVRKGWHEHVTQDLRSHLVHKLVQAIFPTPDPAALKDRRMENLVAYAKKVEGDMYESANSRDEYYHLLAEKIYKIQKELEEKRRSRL

Binder: EEEYRALLEE [DUX4 KBM peptide (E414-E423)]
- Kd: ~1100 nM
